Test results published in patent US20150218534A1, “MODIFIED DNA POLYMERASE” (TOYOBO CO., LTD., priority 2012, published 2015).
Substitutions are numbered along the chain they refer to. Names and notes keep the numbering of the source.

B1: KOD Y7A: modified DNA polymerase derived from Thermococcus kodakaraensis KOD1 with Y7A (protein, listed as Thermococcus kodakaraensis)
chain: MILDTDAITEDGKPVIRIFKKENGEFKIEYDRTFEPYFYALLKDDSAIEEVKKITAERHGTVVTVKRVEKVQKKFLGRPVEVWKLYFTHPQDVPAIRDKIREHPAVIDIYEYDIPFAKRYLIDKGLVPMEGDEELKMLAFDIETLYHEGEEFAEGPILMISYADEEGARVITWKNVDLPYVDVVSTEREMIKRFLRVVKEKDPDVLITYNGDNFDFAYLKKRCEKLGINFALGRDGSEPKIQRMGDRFAVEVKGRIHFDLYPVIRRTINLPTYTLEAVYEAVFGQPKEKVYAEEITTAWETGENLERVARYSMEDAKVTYELGKEFLPMEAQLSRLIGQSLWDVSRSSTGNLVEWFLLRKAYERNELAPNKPDEKELARRRQSYEGGYVKEPERGLWENIVYLDFRSLYPSIIITHNVSPDTLNREGCKEYDVAPQVGHRFCKDFPGFIPSLLGDLLEERQKIKKKMKATIDPIERKLLDYRQRAIKILANSYYGYYGYARARWYCKECAESVTAWGREYITMTIKEIEEKYGFKVIYSDTDGFFATIPGADAETVKKKAMEFLKYINAKLPGALELEYEGFYKRGFFVTKKKYAVIDEEGKITTRGLEIVRRDWSEIAKETQARVLEALLKDGDVEKAVRIVKEVTEKLSKYEVPPEKLVIHEQITRDLKDYKATGPHVAVAKRLAARGVKIRPGTVISYIVLKGSGRIGDRAIPFDEFDPTKHKYDAEYYIENQVLPAVERILRAFGYRKEDLRYQKTRQVGLSAWLKPKGT
B2: KOD P36R: modified KOD DNA polymerase with P36R (protein, listed as Thermococcus kodakaraensis)
chain: B1 chain with A7Y, P36R
B3: KOD P36H/V93K: modified KOD DNA polymerase with P36H and V93K (protein, listed as Thermococcus kodakaraensis)
chain: B1 chain with A7Y, P36H, V93K
B4: KOD V93K: modified KOD DNA polymerase with V93K (protein, listed as Thermococcus kodakaraensis)
chain: B1 chain with A7Y, V93K
B5: KOD V93R: modified KOD DNA polymerase with V93R (protein, listed as Thermococcus kodakaraensis)
chain: B1 chain with A7Y, V93R
B6: KOD V93Q: modified KOD DNA polymerase with V93Q (protein, listed as Thermococcus kodakaraensis)
chain: B1 chain with A7Y, V93Q
B7: KOD P36H: modified KOD DNA polymerase with P36H (protein, listed as Thermococcus kodakaraensis)
chain: B1 chain with A7Y, P36H

Key:
[1] = tested on: human genomic DNA (about 1.3 kb) with dUTP added; test: Evaluation of uracil (dUTP) sensitivity by PCR with dUTP added to the reaction; assay type: biochemical; conditions: for Evaluation of dUTP resisitance on a 11-point scale: closer to 0 = stronger sensitivity to dUTP, closer to 10 = lower sensitivity, summary of Examples 1 to 3; for dUTP resistance: dUTP added to 0.5, 5, 50, 100, 200 μM, about 1.3 kb, 30 cycles, 1 U enzyme; for PCR products on addition of dUTP: some amount of dUTP added
How it was run: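 Uracil sensitivity is judged by whether a roughly 1.3 kb band still appears on ethidium bromide-stained agarose gel. Tolerated dUTP was tested at final 0.5 to 200 μM (0.5, 5, 50, 100, 200 μM), using 10 ng human genomic DNA, 1 U enzyme, 0.2 mM dNTPs and 1.5 mM MgSO4 in KOD-Plus-Ver. 2 buffer. Cycling: 94° C for 30 s, then 30 cycles of 98° C/65° C/68° C.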

[2] = tested on: 0.7 kbp of human β-globin amplified in PCR with dUTP; test: Degradation with UNG of DNA amplified in the presence of dUTP; assay type: biochemical; conditions: for degradation with UNG of DNA amplified with the polymerase in the presence of dUTP: 37° C. for 10 minutes (FIG. 13)
Protocol: It was confirmed whether 0.7 kbp of human β-globin amplified using KOD mutant with reduced uracil sensitivity (N210D/Y7A/P36H) in PCR with dUTP was degraded by being reacted with UNG. For PCR, components included in KOD-Plus-Ver. 2 (produced by Toyobo Co. Ltd.) were used. 50 μl of a reaction solution containing 1× PCR buffer, 1.5 mM MgSO4, dNTPs (dATP, dUTP, dCTP, dGTP) in an amount of 2 mM in which dTTP was replaced by dUTP, primers (SEQ ID NOs: 50 and 51) in an amount of 15 pmol, 10 ng of human genomic DNA (produced by Roche), and 1 U of the enzyme mixed with an antibody was used. PCR was performed using a GeneAmp PCR system 9700 (Applied Biosystems) on the following schedule: preliminary reaction at 94° C. for 2 minutes, followed by 35 cycles, each cycle consisting of 98° C. for 10 seconds, 60° C. for 30 seconds, and 68° C. for 1 minute. The amplification products were diluted with the above-mentioned 1× PCR buffer to 10 ng/μl, 8 μl of the diluted amplification products was mixed with 2 μl of various concentrations of UNG (produced by Roche), and the mixtures were reacted at 37° C. for 10 minutes. After the completion of each individual reaction, each of the mixtures was analyzed using a DNA-1000 kit for MultiNA (produced by Shimadzu Corporation) to confirm the amount of amplification products.

Row | degradation with UNG of DNA amplified with the polymerase in the presence of dUTP [2] | Molecule | Evaluation of dUTP resisitance on a 11-point scale [1] | dUTP resistance [1] [µM] | amount of UNG that completely degraded the amplified DNA ([2]; 80 ng of DNA, 37° C. for 10 minutes) [U] | PCR products on addition of dUTP [1]
1 | the DNA was degraded with UNG | KOD Y7A/V93K: modified KOD DNA polymerase with Y7A and V93K | 8 | >200 | – | –
2 | the DNA was degraded with UNG | KOD Y7A/P36H: modified KOD DNA polymerase with Y7A and P36H | 8 | >200 | – | –
3 | – | B1 | 2 | 0.5 | – | PCR products were confirmed
4 | – | B2 | 5 | >200 | – | PCR products were confirmed
5 | – | B3 | 7 | >200 | – | –
6 | – | B4 | 6 | >200 | – | PCR products were confirmed
7 | – | B5 | 5 | >200 | – | PCR products were confirmed
8 | – | B6 | 3 | 100 | – | PCR products were confirmed
9 | – | B7 | 5 | >200 | – | PCR products were confirmed

Row | Molecule | degradation with UNG of DNA amplified with the polymerase in the presence of dUTP [2] | Evaluation of dUTP resisitance on a 11-point scale [1] | dUTP resistance [1] [µM] | amount of UNG that completely degraded the amplified DNA ([2]; 80 ng of DNA, 37° C. for 10 minutes) [U] | PCR products on addition of dUTP [1]
10 | KOD N210D/Y7A/P36H: KOD N210D (exo(−)) mutant with Y7A and P36H | can be degraded by being reacted with UNG | 10 | >200 | 0.25 | –
